Experimental data as given in patent publication US20150197559A1 (University of California, published 2015).
Substitutions are numbered along the chain they refer to.

Assays:
BoNT/B1 [1] = target: T1, BoNT/B1 (Clostridium botulinum, UniProt P10844 2-1291); experiment: flow cytometry, yeast-displayed scFv, soluble toxin
T1 sequence: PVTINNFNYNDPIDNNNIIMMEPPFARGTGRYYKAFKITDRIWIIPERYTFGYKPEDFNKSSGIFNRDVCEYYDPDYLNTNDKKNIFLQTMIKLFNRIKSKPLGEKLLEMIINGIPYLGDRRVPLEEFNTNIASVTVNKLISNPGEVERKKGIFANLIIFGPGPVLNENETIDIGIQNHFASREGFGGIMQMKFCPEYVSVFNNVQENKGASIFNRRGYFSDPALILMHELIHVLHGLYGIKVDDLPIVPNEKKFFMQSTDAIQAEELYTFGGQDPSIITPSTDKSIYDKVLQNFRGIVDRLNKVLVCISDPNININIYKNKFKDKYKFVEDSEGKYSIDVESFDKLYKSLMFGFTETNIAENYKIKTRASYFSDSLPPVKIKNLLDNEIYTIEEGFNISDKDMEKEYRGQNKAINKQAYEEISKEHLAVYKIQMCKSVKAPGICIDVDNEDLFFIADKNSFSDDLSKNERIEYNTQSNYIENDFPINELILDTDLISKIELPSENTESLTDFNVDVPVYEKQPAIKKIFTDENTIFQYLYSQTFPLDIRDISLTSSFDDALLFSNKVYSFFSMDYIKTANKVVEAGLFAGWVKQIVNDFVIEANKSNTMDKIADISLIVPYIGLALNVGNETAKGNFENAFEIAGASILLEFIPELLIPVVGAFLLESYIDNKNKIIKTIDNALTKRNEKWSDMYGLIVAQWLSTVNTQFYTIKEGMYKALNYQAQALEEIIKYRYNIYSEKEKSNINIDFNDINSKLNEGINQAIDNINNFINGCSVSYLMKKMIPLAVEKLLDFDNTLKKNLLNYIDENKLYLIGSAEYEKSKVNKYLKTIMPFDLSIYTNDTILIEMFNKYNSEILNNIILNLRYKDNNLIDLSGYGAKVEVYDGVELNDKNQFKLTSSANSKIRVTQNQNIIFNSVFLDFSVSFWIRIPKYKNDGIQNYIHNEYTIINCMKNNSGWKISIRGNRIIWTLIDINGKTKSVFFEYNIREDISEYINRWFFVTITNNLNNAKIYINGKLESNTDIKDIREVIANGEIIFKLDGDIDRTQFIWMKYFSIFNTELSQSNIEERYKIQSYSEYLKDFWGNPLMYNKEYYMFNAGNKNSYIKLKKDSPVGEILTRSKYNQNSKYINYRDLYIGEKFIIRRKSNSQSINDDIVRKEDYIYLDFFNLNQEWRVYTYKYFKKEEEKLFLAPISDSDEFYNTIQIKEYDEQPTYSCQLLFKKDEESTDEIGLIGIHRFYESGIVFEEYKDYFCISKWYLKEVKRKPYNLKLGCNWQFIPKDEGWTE

BoNT/B1 [2] = target: T1, BoNT/B1; experiment: flow cytometry, yeast-displayed parental scFv
BoNT/B1 [3] = target: T1, BoNT/B1; experiment: flow cytometry, yeast-displayed scFv, soluble toxin; remark: listed apart in the source
BoNT/B3 = BoNT/B3 (Clostridium botulinum); experiment: as above
BoNT/B1 [4] = target: T1, BoNT/B1; experiment: flow cytometry, yeast-displayed Fab, soluble toxin
BoNT/B1 [5] = target: T1, BoNT/B1; experiment: yeast-displayed Fab against parental B6 scFv, flow cytometry
BoNT/B1 [6] = target: T1, BoNT/B1; experiment: flow cytometry, yeast-displayed Fab, soluble toxin; remark: listed apart in the source
BoNT/B1 [7] = target: T1, BoNT/B1
BoNT/B1 [8] = target: T1, BoNT/B1; experiment: KinExA flow fluorimetry, IgG in solution
BoNT/B1 [9] = target: T1, BoNT/B1; experiment: yeast-displayed Fab against parental B11 scFv, flow cytometry
BoNT/B1 [10] = target: T1, BoNT/B1; experiment: flow cytometry, yeast-displayed Fab against yeast-displayed scFv
BoNT/A1 (Hall hyper) [11] = target: T2, BoNT/A1 (Hall hyper) (Clostridium botulinum, UniProt P0DPI0 2-1296); experiment: KinExA flow fluorimetry, IgG in solution
BoNT/A1 (Hall hyper) [12] = target: T2, BoNT/A1 (Hall hyper); experiment: flow cytometry, yeast-displayed Fab, soluble toxin
BoNT/A1 (Hall hyper) [13] = target: T2, BoNT/A1 (Hall hyper); experiment: flow cytometry, yeast-displayed Fab against yeast-displayed scFv
BoNT/A1 (Hall hyper) [14] = target: T2, BoNT/A1 (Hall hyper); experiment: flow cytometry, yeast-displayed scFv, soluble toxin
BoNT/A1 (Hall hyper) [15] = target: T2, BoNT/A1 (Hall hyper); experiment: as above; remark: listed apart in the source
BoNT/A1 (Hall hyper) [16] = target: T2, BoNT/A1 (Hall hyper); experiment: flow cytometry, yeast-displayed scFv, soluble BoNT/A1
BoNT/A1 (Hall hyper) [17] = target: T2, BoNT/A1 (Hall hyper)
BoNT/B2 = BoNT/B2 (Clostridium botulinum); experiment: flow cytometry, yeast-displayed scFv, soluble toxin
BoNT/B4 = BoNT/B4 (Clostridium botulinum); experiment: as above

B1: B6 scFv (scFv)
scFv: QVQLVQSGAEVKKPGESLVISCKASGDKDTFTSFWIAWVRQMPGKGLEWMGIIYAGDSDTRYSPSFQGHVNISVDRSTNTAYLQWSSLKASDTAMYYCARHDSRYKYFYFGMDVWGQGTTVTVSSGGGGSGGGGSGGGGSDVVMTQSPSSLSASVGDRITITCQAGQDISNFLNWYQQKPGKAPKLLIRDASNLETGVPSRFSGGGSGTHFTFTISSLHPEDIATYFCQQYDNLPYTFGQGTKLEIK
Kd (BoNT/B1 [1]): 2.71 nM
Kd (BoNT/B1 [2]): 2.71 nM

B2: B11 scFv (scFv)
scFv: QVQLLQSAGGVVQPGRSLRLSCAASGFIFRTYGMHWVRQAPGKGLEWVAFVSSDGNNKFYSDSVKGRFTIPRDNAKNTLYLQMNSLETEDTAVYYCAKDRYPIDCSGGSCFSYGMDVWGQGTTVTVSSGGGGSGGGGSGGGGSDIVMTQSPSTLSASVGDRVTVTCRASQSINSWLAWYQQKPGKAPKLLIYEASSLESGVPSRFSGSGSGTEFTLTISSLQPDDFATYYCQQYDSYWLTFGGGTKVEIK
Kd (BoNT/B1 [1]): 2.62 nM
Kd (BoNT/B1 [2]): 2.62 nM

B3: 1B11 scFv (scFv)
chain: B2 scFv
Kd (BoNT/B1 [3]): 2.6 nM
Kd (BoNT/B3): 4.43 nM

B4: B6.1 Fab (Fab, V domains shown)
VH: QVQLVQSGAEVKKPGESLVISCKASGDKDTFTSFWIAWVRQMPGKGLEWMGIIYAGDSDTRYSPSFQGHVNISVDRSTNTAYLQWSSLKASDTAMYYCARHDSRYKYFYFGMDVWGQGTTVTVSS
VL: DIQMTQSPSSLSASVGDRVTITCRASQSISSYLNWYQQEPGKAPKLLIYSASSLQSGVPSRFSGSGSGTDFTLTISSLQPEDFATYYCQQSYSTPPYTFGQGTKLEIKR
Kd (BoNT/B1 [4]): 0.286 nM
KD wild type/KD matured (BoNT/B1 [5]): 9 fold
Kd (BoNT/B1 [6]): 0.286 nM

B5: B6.1 IgG (antibody, V domains shown)
VH: B4 VH
VL: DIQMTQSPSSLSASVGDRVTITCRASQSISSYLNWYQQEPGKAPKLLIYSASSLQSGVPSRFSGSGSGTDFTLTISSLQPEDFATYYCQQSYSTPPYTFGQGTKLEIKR
fold increase in affinity, IgG against yeast displayed Fab (BoNT/B1 [7]): 42 fold
Kd (BoNT/B1 [8]): 0.00682 nM

B6: B11E8 Fab (Fab, V domains shown)
VH: EVQLVQSGGGVVQPGRSLRLSCAASGFIFRTYGMHWVRQAPGKGLEWVAFVSSDGNNKFYSDSVKGRFTISRDNAKNTLYLQMNSLETEDTAMYYCAKDRYPIDCSGGSCFSYGMDVWGQGTTVTVSS
VL: EIVLTQSPATLSVSPGERATLSCRASQSVSKFLAWYQQKRGQAPRLLIYGASTRATGIPARFSGSGSGTEFALTISSLQSEDFADYYCQQYDNWPITFGQGTRLEIKR
KD wild type/KD matured (BoNT/B1 [9]): 32 fold
Kd (BoNT/B1 [6]): 0.081 nM

B7: B11 Fab (Fab, V domains shown)
VH: B6 VH with E1Q, V5L, G8A, S71P, M93V
VL: DIVMTQSPSTLSASVGDRVTVTCRASQSINSWLAWYQQKPGKAPKLLIYEASSLESGVPSRFSGSGSGTEFTLTISSLQPDDFATYYCQQYDSYWLTFGGGTKVEIKR
fold lower affinity than the scFv (BoNT/B1 [10]): 2.5 fold

B8: B11E8 IgG (antibody, V domains shown)
VH: B6 VH
VL: B6 VL
fold increase in affinity, IgG against yeast displayed Fab (BoNT/B1 [7]): 4.85 fold
Kd (BoNT/B1 [8]): 0.00659 nM

B9: ING1 IgG (antibody, V domains shown)
VH: QVQLQQSGGGLVQPGGSLRLSCAASGFTFSNYAMTWVRQAPGKGLEWVSSISVGGSDTYYADSVKGRFTVSRDNSKNTLLLQMNSLRAEDTAVYYCAKVRTKYCSSLSCFAGFDSWGQGTRVTVSS
VL: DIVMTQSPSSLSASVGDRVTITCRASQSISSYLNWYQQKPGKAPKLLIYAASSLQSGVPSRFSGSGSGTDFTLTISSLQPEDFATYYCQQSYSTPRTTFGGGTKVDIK
Kd (BoNT/A1 (Hall hyper) [11]): 0.314 nM

B10: ING1 Fab (Fab, V domains shown)
VH: B9 VH
VL: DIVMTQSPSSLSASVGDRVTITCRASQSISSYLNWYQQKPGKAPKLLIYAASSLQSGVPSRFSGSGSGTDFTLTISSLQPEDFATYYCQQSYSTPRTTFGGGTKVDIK
Kd (BoNT/A1 (Hall hyper) [12]): 20.6 nM
fold lower affinity than the scFv (BoNT/A1 (Hall hyper) [13]): 3.9 fold

B11: ING2 scFv (scFv, V domains shown)
VH: QVQLVQSGAEVKKPGSSVKVSCKASGDTFNRNAIAWVRQAPGQGLEWMGRIIPNLRTTHYAQKFQGRVAITADKHTNTVFMELSSLRSEDTAVYYCARDPYYYSYMDVWGKGTTVTVSS
VL: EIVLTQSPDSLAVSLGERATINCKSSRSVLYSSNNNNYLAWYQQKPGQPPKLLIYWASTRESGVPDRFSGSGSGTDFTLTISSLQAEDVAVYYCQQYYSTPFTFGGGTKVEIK
Kd (BoNT/A1 (Hall hyper) [14]): 0.24 nM
Kd (BoNT/A1 (Hall hyper) [15]): 0.238 nM
Kd (BoNT/A1 (Hall hyper) [16]): 0.25 nM

B12: ING2 IgG (antibody, V domains shown)
VH: B11 VH
VL: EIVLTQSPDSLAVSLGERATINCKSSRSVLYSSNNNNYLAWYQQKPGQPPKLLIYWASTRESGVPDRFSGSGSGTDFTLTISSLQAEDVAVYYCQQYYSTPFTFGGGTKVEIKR
fold increase in affinity, IgG against parental scFv (BoNT/A1 (Hall hyper) [17]): 1.5 to 25 fold
Kd (BoNT/A1 (Hall hyper) [11]): 0.00957 nM

B13: 2B29 scFv (scFv, V domains shown)
VH: QVQLQESGPGLVKPSETLSLTCSVSGGSINSGTYYWTWIRQHPGKGLEWIGYIYYSGTTYYNPSLKSRVSMSVDTSKNLFSLKMNSVTAADTALYYCARGNPQYDTSGSYTGLYFDFWGQGTLVTVSS
VL: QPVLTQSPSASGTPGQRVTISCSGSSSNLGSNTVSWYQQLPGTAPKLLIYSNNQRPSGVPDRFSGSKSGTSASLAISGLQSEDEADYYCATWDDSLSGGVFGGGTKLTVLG
Kd (BoNT/B1 [3]): 1.11 nM
Kd (BoNT/B3): 1.61 nM
Kd (BoNT/B2): 1.02 nM
Kd (BoNT/B4): 1.29 nM

B14: 2B27 scFv (scFv, V domains shown)
VH: EVQLQESGPGLVKPSETLSVTCAVSGGSISSSNYSWAWIRQPPGKGLEWIGTMYYSGSTHYHPSLKSRVTISVDTSKSQLSLKLSSVTAADTAVYYCARRRLLGPSPYYFDYWGQGTLVTVSS
VL: QSVVTQPPSVSGAPGQRVTISCSGSSSNIGAGYDVHWYQQLPGTAPKLLIYGNNNRPSGVPDRFSGSKSGTSASLAITGLQAEDEADYYCQSYDSSLSAYVFGTGTKLTVLG
Kd (BoNT/B1 [3]): 1.9 nM
Kd (BoNT/B3): 2.32 nM
Kd (BoNT/B2): 0.56 nM
Kd (BoNT/B4): 0.77 nM
